Assays:
[1] = target: the molecule itself; test: single-molecule fluorescence microscopy (oligomer size from mEGFP intensity); Dyn2-mEGFP (10-20 nM) premixed with 0.2 mM LUVs (Rh-DOPE) added to nanotubes, no GTP; mEGFP fluorescence colocalized with LUVs tethered to the nanotube
[2] = target: the molecule itself; test: single-molecule fluorescence microscopy (oligomer size from mEGFP intensity); Dyn2-mEGFP 20 nM pulse-perfused on membrane nanotubes (40 mol% PE, 0.1 mol% Cy5-PE), protein washed off from the bulk, no nucleotide (apo); total fluorescence divided by the mean intensity of a single mEGFP

B1: Dyn2 labeled with monomeric GFP (Dyn2-mEGFP) (natural protein, UniProt P50570 1-870, looked up)
chain: MGNRGMEELIPLVNKLQDAFSSIGQSCHLDLPQIAVVGGQSAGKSSVLENFVGRDFLPRGSGIVTRRPLILQLIFSKTEHAEFLHCKSKKFTDFDEVRQEIEAETDRVTGTNKGISPVPINLRVYSPHVLNLTLIDLPGITKVPVGDQPPDIEYQIKDMILQFISRESSLILAVTPANMDLANSDALKLAKEVDPQGLRTIGVITKLDLMDEGTDARDVLENKLLPLRRGYIGVVNRSQKDIEGKKDIRAALAAERKFFLSHPAYRHMADRMGTPHLQKTLNQQLTNHIRESLPALRSKLQSQLLSLEKEVEEYKNFRPDDPTRKTKALLQMVQQFGVDFEKRIEGSGDQVDTLELSGGARINRIFHERFPFELVKMEFDEKDLRREISYAIKNIHGVRTGLFTPDLAFEAIVKKQVVKLKEPCLKCVDLVIQELINTVRQCTSKLSSYPRLREETERIVTTYIREREGRTKDQILLLIDIEQSYINTNHEDFIGFANAQQRSTQLNKKRAIPNQGEILVIRRGWLTINNISLMKGGSKEYWFVLTAESLSWYKDEEEKEKKYMLPLDNLKIRDVEKGFMSNKHVFAIFNTEQRNVYKDLRQIELACDSQEDVDSWKASFLRAGVYPEKDQAENEDGAQENTFSMDPQLERQVETIRNLVDSYVAIINKSIRDLMPKTIMHLMINNTKAFIHHELLAYLYSSADQSSLMEESADQAQRRDDMLRMYHALKEALNIIGDISTSTVSTPVPPPVDDTWLQSASSHSPTPQRRPVSSIHPPGRPPAVRGPTPGPPLIPVPVGAAASFSAPPIPSRPGPQSVFANSDLFPAPPQIPSRPVRIPPGIPPGVPSRRPPAAPSRPTIIRPAEPSLLD
notes: Dynamin 2 (Dyn2) fused to monomeric EGFP; source: purified
- stoichiometry N [1]: 38 ± 16 molecules
- stoichiometry N [2]: 12 ± 6 mEGFP units
